In experiment [1] the target is T1, KIX domain of CBP (c-Myb/pKID site) (Mus musculus, UniProt P45481).
T1 construct: KIX (residues 586–672 of mouse CBP); 6xHis-tag with thrombin cleavage site (MGHHHHHHSSGLVPR) (N); made in house; host or cells: E. coli BL21(DE3)pLysS for KIX; E. coli BL21(DE3) for MLL28
Briefly: Isothermal titration calorimetry (ITC) of KIX binding of Myb32 peptides. Particulars: 20 mM Tris-acetate pH 7.0, 50 mM NaCl, 30 °C, 600 μM Myb32 into 45 µM KIX + 90 µM MLL28, mean ± standard error, more than two measurements, read-out: Kd (dissociation constant for KIX binding). From the text: Next, we performed isothermal titration calorimetry (ITC) measurements to investigate the KIX-binding affinity of the peptides. Although Myb32 primarily binds the c-Myb/pKID site on KIX, previous studies have shown that it also binds the MLL site, located opposite the c-Myb/pKID site[38]. Therefore, to prevent the secondary binding of Myb32, we conducted all ITC experiments in the presence of the MLL TAD peptide (residues 2842–2869, called MLL28) with a two-fold excess of MLL over KIX[38].
ITC measurements were conducted using a MicroCal iTC200 (Malvern Panalytical Ltd., Malvern, United Kingdom) in ITC buffer at 30 °C. All samples were dialyzed sufficiently before the experiments. 600 μM Myb32 was titrated into the cell containing 45 µM KIX and 90 µM MLL28. The data were analyzed using Origin software (OriginLab Co., Northampton, MA, USA) to obtain the Kd, stoichiometry of binding (N), and enthalpy change upon binding (ΔH). The Gibbs free energy change (ΔG) and entropy change (ΔS) upon binding were obtained as follows:3 ΔG=-RTln1/Kd 4 ΔS=ΔH-ΔG/T where R is the gas constant, and T is the temperature.
Background: ITC needs no label: the signal is the heat of the interaction.

The next experiment has as its target CBP KIX (Mus musculus) (UniProt P45481). The following applies: cited from earlier work.
A further experiment deals with KIX. The following applies: previous studies; read-out: Kd (dissociation constant for KIX binding); cited from earlier work. From the text:
Although the c-Myb TAD is intrinsically disordered, the region of residues 284–315, called Myb32, has a high helical propensity. […] Moreover, Myb32 is known to bind KIX by a conformational selection mechanism. This information may provide a clue to improve the binding affinity to KIX[38],[40]. Therefore, Myb32 is a suitable template for designing peptide inhibitors.

For experiment [2], the target named is T2, KIX domain of CBP in the presence of the MLL TAD peptide MLL28 (two-fold excess of MLL28 over KIX) (mouse | human, UniProt P45481 586-672; Q03164 2842-2869).
T2 construct: KIX domain, residues 586-672 of mouse CBP; single Tyr residue attached at the C-terminus of MLL28 for concentration determination; A Gly left at the N-terminus after thrombin cleavage is stated only for Myb32, it is likely on MLL28 too; also called KIX and MLL28; source: E. coli BL21(DE3)pLysS (KIX) and BL21(DE3) (MLL28), each purified; 45 uM KIX and 90 uM MLL28 together in the ITC cell; not …
T2 sequence (P45481 586-672, chain 1 of 2): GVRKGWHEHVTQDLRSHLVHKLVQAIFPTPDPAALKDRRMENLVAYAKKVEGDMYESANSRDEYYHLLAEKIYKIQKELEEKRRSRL
T2 sequence (Q03164 other isoform, or with tags, fused parts or gaps, chain 2 of 2): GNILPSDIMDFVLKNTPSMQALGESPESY
The experiment in a line: ITC; 600 uM Myb32 peptide titrated into the cell with 45 uM KIX and 90 uM MLL28; 20 mM Tris-acetate pH 7.0, 50 mM NaCl; 30 °C. The following applies: both partners purified.

Experiment [3] addresses T2, KIX domain of CBP in the presence of …. Briefly: ITC; under the conditions of the SPR measurement: 20 mM sodium phosphate pH 7.0, 300 mM NaCl; in the presence of MLL28 (all ITC experiments). The following applies: both partners purified.
Experiment [4] addresses T3, KIX domain of CREB-binding protein (residues 586-672 of mouse CBP) without a His-tag (mouse, UniProt P45481 586-672).
T3 construct: KIX domain, residues 586-672 of mouse CBP; the thrombin site ends in LVPR followed by G586 of KIX; also called KIX without a His-tag; source: E. coli BL21(DE3)pLysS, purified (Ni-NTA, thrombin cleavage, size exclusion chromatography); not shown: His6, N-terminal, cleaved
The experiment in a line: SPR; competitive binding assay (OpenSPR, localized SPR); His-tag-GB1-Myb32 wild type immobilised by amine coupling; 1 uM KIX without His-tag injected alone or mixed with inhibitor (1 nM to 300 uM); 20 mM sodium phosphate pH 7.0, 300 mM NaCl; 30 °C. The following applies: both partners purified. For orientation: Surface plasmon resonance follows binding to a sensor surface in real time, without labels.

Here are results for 14 molecules from PMC8776815, “Rational design of a helical peptide inhibitor targeting c-Myb–KIX interaction” (Scientific Reports, 2022).

No end group written: not given here.

In general, Kd refers to a measure of binding affinity in units of concentration. For orientation: stoichiometry N means a count of units in the complex or per binding partner. Broadly, the IC50 is the concentration needed to halve the response being measured. Read a low IC50 as greater potency in that assay.

T3 sequence (P45481 586-672): as the sequence (P45481 586-672, chain 1 of 2) above
CBP KIX (Mus musculus), sequence (P45481 583-668): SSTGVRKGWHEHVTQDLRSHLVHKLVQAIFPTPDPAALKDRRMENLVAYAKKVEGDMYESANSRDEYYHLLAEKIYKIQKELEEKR

As to “GYNDEDPEKERRIKELELLLMSTENELKGQQAL [K293R]”, in experiment [1], the Kd came to 220 ± 10 nM.

Turning to c-Myb TAD TAD (from UniProt P06876), the equilibrium dissociation constant (Kd) in the experiment with CBP KIX (Mus musculus) was 500 nM.

Take GYNDEDPEKEKRIKELELLLMSTENELKGQQAL [WT]: the Kd in experiment [1] was found to be 220 ± 10 nM.

For “c-Myb TAD full length: full-length transactivation domain of c-Myb (residues 275–327), intrinsically disordered (PAAAAIQRHYNDEDPEKEKRIKELELLLMSTENELKGQQVLPTQNHTCSYPGW; transactivation domain; UniProt P10242 275-327, looked up, fragment)”, the Kd on KIX is 500 nM.

B1: Myb32 wild type (residues 284-315 of mouse c-Myb, transactivation domain fragment) (peptide)
chain: GYNDEDPEKEKRIKELELLLMSTENELKGQQAL
notes: additional Gly residue left at the N-terminus after thrombin cleavage; Myb32, residues 284-315 of mouse c-Myb; 33-residue peptide (Gly + 32 residues); also called WT; wild-type Myb32; source: E. coli BL21(DE3), purified (Ni-NTA, thrombin cleavage on the column, DEAE anion exchange); not shown: His6, N-terminal, cleaved; GB1, N-terminal, cleaved
For the molecule B1, in experiment [2], the Kd is 220 nM, the dH was -6.49 kcal mol^–1 and the “stoichiometry N” value was 0.97. Moreover, in experiment [3], the dissociation constant (Kd) amounted to 510 nM, the dH was -13.8 kcal mol^–1 and the “stoichiometry N” value was 0.99. The concentration for half-maximal inhibition (IC50) in experiment [4] stood at 10900 nM.

B2: Myb32 K291R (peptide)
chain: GYNDEDPEREKRIKELELLLMSTENELKGQQAL
notes: additional Gly residue left at the N-terminus after thrombin cleavage; Myb32, residues 284-315 of mouse c-Myb; source: E. coli BL21(DE3), purified (Ni-NTA, thrombin cleavage on the column, DEAE anion exchange); not shown: His6, N-terminal, cleaved; GB1, N-terminal, cleaved
Consider B2, for which, in experiment [2], the equilibrium dissociation constant (Kd) turned out to be 210 nM, the dH was -6.46 kcal mol^–1 and the “stoichiometry N” value amounted to 0.97.

B3: Myb32 K291R/K296R (peptide)
chain: GYNDEDPEREKRIRELELLLMSTENELKGQQAL
notes: as for B2
As to B3, in experiment [2], the Kd amounted to 120 nM, the dH is -7.56 kcal mol^–1 and the “stoichiometry N” value amounted to 0.9.

B4: Myb32 K291R/K293R (peptide)
chain: GYNDEDPERERRIKELELLLMSTENELKGQQAL
notes: as for B2
Turning to B4, in experiment [2], the Kd turned out to be 140 nM, the dH was -7.31 kcal mol^–1 and the “stoichiometry N” value was 0.84.

B5: Myb32 K291R/K293R/K296R triple mutant (RRR) (peptide)
chain: GYNDEDPERERRIRELELLLMSTENELKGQQAL
notes: additional Gly residue left at the N-terminus after thrombin cleavage; Myb32, residues 284-315 of mouse c-Myb; also called RRR Myb32 mutant; source: E. coli BL21(DE3), purified (Ni-NTA, thrombin cleavage on the column, DEAE anion exchange); not shown: His6, N-terminal, cleaved; GB1, N-terminal, cleaved
As to B5, in experiment [2], the Kd came to 80 nM, the dH was -7.57 kcal mol^–1 and the “stoichiometry N” value is 0.99. Further, in experiment [3], the equilibrium dissociation constant (Kd) worked out at 260 nM, the dH was -14.8 kcal mol^–1 and the “stoichiometry N” value turned out to be 0.99. The IC50 in experiment [4] was 5600 nM.

B6: Myb32 K296R (peptide)
chain: GYNDEDPEKEKRIRELELLLMSTENELKGQQAL
notes: as for B2
Take B6: in experiment [2], the dissociation constant Kd came out at 160 nM, the dH is -6.3 kcal mol^–1 and the “stoichiometry N” value is 0.96.

B7: Myb32 K293R/K296R (peptide)
chain: GYNDEDPEKERRIRELELLLMSTENELKGQQAL
notes: as for B2
Turning to B7, in experiment [2], the Kd is 130 nM, the dH was -7.31 kcal mol^–1 and the “stoichiometry N” value turned out to be 0.96.

B8: Myb32 E292L (peptide)
chain: GYNDEDPEKLKRIKELELLLMSTENELKGQQAL
notes: as for B2
For the molecule B8, in experiment [2], the Kd was found to be 480 nM, the dH is -5.45 kcal mol^–1 and the “stoichiometry N” value is 0.92.

B9: Myb32 K293R (peptide)
chain: GYNDEDPEKERRIKELELLLMSTENELKGQQAL
notes: as for B2
For B9, in experiment [2], the dH was -7.03 kcal mol^–1 and the “stoichiometry N” value was determined as 0.94.

B10: His-tag-GB1-Myb32 (wild-type Myb32 with a His-tag and GB1) (peptide)
chain: YNDEDPEKEKRIKELELLLMSTENELKGQQAL
notes: Myb32, residues 284-315 of mouse c-Myb; 6xHis-tag, B1 domain of protein G and the thrombin cleavage site stand before Myb32; coupled to the chip by amine coupling; also called immobilized wild-type Myb32; His-tagged Myb32 protein; source: E. coli BL21(DE3), purified (Ni-NTA, eluted with imidazole); not shown: His6, N-terminal, kept; GB1, N-terminal, kept
For B10, the binding result in experiment [4] is recorded as “binds”.
